From US20200087363A1 (IMMATICS BIOTECHNOLOGIES, published 2020)

Biological target: T1, HLA-B*44:05 (human)
T1 construct: also called peptide-receptive MHC class I molecule
Assay: UV peptide exchange, anti-b2m ELISA
Method in brief: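 Peptide-receptive HLA-B*44:05 monomers after UV-induced exchange were diluted 100-fold and captured on streptavidin-coated plates for 1 h at 37 °C. Bound complexes were detected with 2 µg/ml HRP-anti-β2m (1 h, 37 °C) and TMB, read at 450 nm. β2m signal reflects peptide-stabilized complex yield.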

peptide exchange yield | Binder
50 to 75% | AENPLNIFYI
20 to 50% | AEPPILYSEY
20 to 50% | EMREERKF
50 to 75% | SEHLFGTSY
> 75% | AEKNRRDAETW
> 75% | SETAVVNVTY
20 to 50% | RLWPEPENW
> 75% | TEFQQIINL
50 to 75% | SESSSFLKV
> 75% | AENPLNIFY
50 to 75% | EEINQGGRKY

Further lines, the binder ahead of its results:

Binder | peptide exchange yield
AEQEIMKKV | > 75%
SEQHSLPVF | 50 to 75%
KEWEREKAVSL | 50 to 75%
MEQQSQEY | 50 to 75%
SDDLRNVTW | > 75%
REESDWHYL | 50 to 75%
QELSSIRQF | 50 to 75%
EEPKIDFRVY | 50 to 75%
HENGVLTKF | 20 to 50%
YEQLLKVVTW | > 75%
SEPQITVNF | 50 to 75%
FELECPVKY | 50 to 75%
IEYENQKRL | 20 to 50%
RELLDFSSW | > 75%
RRHPSFKRF | 10 to 20%
REYEYDLKW | > 75%
YEWEPFAEV | 10 to 20%
REKDLPNYNW | > 75%
DEIFTNDRRW | 20 to 50%
